Laboratory results from IntAct's records for PubMed 31515488.

B1: Progranulin (Homo sapiens), P28799 (parent)
chain: MWTLVSWVALTAGLVAGTRCPDGQFCPVACCLDPGGASYSCCRPLLDKWPTTLSRHLGGPCQVDAHCSAGHSCIFTVSGTSSCCPFPEAVACGDGHHCCPRGFHCSADGRSCFQRSGNNSVGAIQCPDSQFECPDFSTCCVMVDGSWGCCPMPQASCCEDRVHCCPHGAFCDLVHTRCITPTGTHPLAKKLPAQRTNRAVALSSSVMCPDARSRCPDGSTCCELPSGKYGCCPMPNATCCSDHLHCCPQDTVCDLIQSKCLSKENATTDLLTKLPAHTVGDVKCDMEVSCPDGYTCCRLQSGAWGCCPFTQAVCCEDHIHCCPAGFTCDTQKGTCEQGPHQVPWMEKAPAHLSLPDPQALKRDVPCDNVSSCPSSDTCCQLTSGEWGCCPIPEAVCCSDHQHCCPQGYTCVAEGQCQRGSEIVAGLEKMPARRASLSHPRDIGCDQHTSCPVGQTCCPSLGGSWACCQLPHAVCCEDRQHCCPAGYTCNVKARSCEKEVVSAQPATFLARSPHVGVKDVECGEGHFCHDNQTCCRDNRQGWACCPYRQGVCCADRRHCCPAGFRCAARGTKCLRREAPRWDAPLRDPALRQLL
B2: Myotubularin-related protein 9 (Homo sapiens), Q96QG7 (parent)
chain: MEFAELIKTPRVDNVVLHRPFYPAVEGTLCLTGHHLILSSRQDNTEELWLLHSNIDAIDKRFVGSLGTIIIKCKDFRIIQLDIPGMEECLNIASSIEALSTLDSITLMYPFFYRPMFEVIEDGWHSFLPEQEFELYSSATSEWRLSYVNKEFAVCPSYPPIVTVPKSIDDEALRKVATFRHGGRFPVLSYYHKKNGMVIMRSGQPLTGTNGRRCKEDEKLINATLRAGKRGYIIDTRSLNVAQQTRAKGGGFEQEAHYPQWRRIHKSIERYHILQESLIKLVEACNDQTHNMDRWLSKLEASNWLTHIKEILTTACLAAQCIDREGASILIHGTEGTDSTLQVTSLAQIILEPRSRTIRGFEALIEREWLQAGHPFQQRCAQSAYCNTKQKWEAPVFLLFLDCVWQILRQFPCSFEFNENFLIMLFEHAYASQFGTFLGNNESERCKLKLQQKTMSLWSWVNQPSELSKFTNPLFEANNLVIWPSVAPQSLPLWEGIFLRWNRSSKYLDEAYEEMVNIIEYNKELQAKVNILRRQLAELETEDGMQESP

Variants of: B1
Details: with hxa1_human HOXA1, P49639
Chain of hxa1_human HOXA1, P49639 (P49639 whole entry): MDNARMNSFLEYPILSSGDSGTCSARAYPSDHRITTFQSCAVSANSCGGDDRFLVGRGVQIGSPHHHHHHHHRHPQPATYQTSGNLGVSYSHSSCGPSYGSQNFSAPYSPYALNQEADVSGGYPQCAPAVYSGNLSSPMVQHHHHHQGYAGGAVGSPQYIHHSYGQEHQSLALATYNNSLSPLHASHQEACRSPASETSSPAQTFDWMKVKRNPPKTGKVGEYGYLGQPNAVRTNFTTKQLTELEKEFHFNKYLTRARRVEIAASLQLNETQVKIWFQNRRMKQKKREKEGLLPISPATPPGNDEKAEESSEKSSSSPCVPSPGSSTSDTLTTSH

Row | Variant | effect of a mutation on the interaction
1 | MWTLVSWVALTAGLVAGTRCPDGQFCPVACCLDPGGASYSCCRPLLDKWPTTLSRHLGGPCQVDAHCSAGHSCIFTVSGTSSCCPFPEAVACGDGHHCCPRGFHCSADGRSCFQRSGNNSVGAIQCPDSQFECPDFSTCCVMVDGSWGCCPMPQASCCEDRVHCCPHGAFCDLVHTRCITPTGTHPLAKKLPAQRTNRAVALSSSVMCPDARSRCPDGSTCCELPSGKYGCCPMPNATCCSDHLHCCPQDTVCDLIQSKCLSKENATTDLLTKLPAHTVGDVKCDMEVSCPDGYTCCRLQSGAWGCCPFTQAVCCEDHIHCCPAGFTCDTQKGTCEQGPHQVPWMEKAPAHLSLPDPQALKRDVPCDNVSSCPSSDTCCQLTSGEWGCCPIPEAVCCSDHQHCCPQGYTCVAEGQCQRGSEIVAGLEKMPARWASLSHPRDIGCDQHTSCPVGQTCCPSLGGSWACCQLPHAVCCEDRQHCCPAGYTCNVKARSCEKEVVSAQPATFLARSPHVGVKDVECGEGHFCHDNQTCCRDNRQGWACCPYRQGVCCADRRHCCPAGFRCAARGTKCLRREAPRWDAPLRDPALRQLL [R433W] | with no effect
2 | MWTLVSWVALTAGLVAGTRCPDGQFCPVACCLDPGGASYSCCRPLLDKWPTTLSRHLGGPCQVDAHCSAGHSCIFTVSGTSSCCPFPEAVACGDGHHCCPRGFHCSADGRSCFQRSGNNSVGAIQCPDSQFECPDFSTCCVMVDGSWGCCPMPQASCCEDRVHCCPHGAFCDLVHTRCITPTGTHPLAKKLPAQRTNRAVALSSSVMCPDARSRCPDGSTCCELPSGKYGCCPMPNATCCSDHLHCCPQDTVCDLIQSKCLSKENATTDLLTKLPAHTVGDVKCDMEVSCPDGYTCCRLQSGAWGCCPFTQAVCCEDHIHCCPAGFTCDTQKGTCEQGPHQVPWMEKAPAHLSLPDPQALKRDVPCDNVSSCPSSDTCCQLTSGEWGCCPIPEAVCCSDHQHCCPQGYTCVAEGQCQRGSEIVAGLEKMPARRASLSHPRDIGCDQHTSCPVGQTCCPSLGGSWACCQLPHAVCCEDRQHCCPAGYTCNVKARSCEKEVVSAQPATFLARSPHVAVKDVECGEGHFCHDNQTCCRDNRQGWACCPYRQGVCCADRRHCCPAGFRCAARGTKCLRREAPRWDAPLRDPALRQLL [G515A] | with no effect

Variants of: B1
Details: with glrx3_human GLRX3, O76003
Chain of glrx3_human GLRX3, O76003 (O76003 whole entry): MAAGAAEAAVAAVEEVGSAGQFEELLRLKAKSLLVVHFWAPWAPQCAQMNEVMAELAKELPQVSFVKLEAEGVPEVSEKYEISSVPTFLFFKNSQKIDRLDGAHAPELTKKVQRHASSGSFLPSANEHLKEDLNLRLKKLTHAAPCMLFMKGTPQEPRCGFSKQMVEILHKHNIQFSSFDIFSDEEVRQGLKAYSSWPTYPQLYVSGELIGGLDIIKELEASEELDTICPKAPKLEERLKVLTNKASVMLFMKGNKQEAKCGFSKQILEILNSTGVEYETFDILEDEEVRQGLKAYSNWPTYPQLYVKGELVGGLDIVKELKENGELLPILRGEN

Row | Variant | effect of a mutation on the interaction
3 | MWTLVSWVALTAGLVAGTRCPDGQFCPVACCLDPGGASYSCCRPLLDKWPTTLSRHLGGPCQVDAHCSAGHSCIFTVSGTSSCCPFPEAVACGDGHHCCPRGFHCSADGRSCFQRSGNNSVGAIQCPDSQFECPDFSTCCVMVDGSWGCCPMPQASCCEDRVHCCPHGAFCDLVHTRCITPTGTHPLAKKLPAQRTNRAVALSSSVMCPDARSRCPDGSTCCELPSGKYGCCPMPNATCCSDHLHCCPQDTVCDLIQSKCLSKENATTDLLTKLPAHTVGDVKCDMEVSCPDGYTCCRLQSGAWGCCPFTQAVCCEDHIHCCPAGFTCDTQKGTCEQGPHQVPWMEKAPAHLSLPDPQALKRDVPCDNVSSCPSSDTCCQLTSGEWGCCPIPEAVCCSDHQHCCPQGYTCVAEGQCQRGSEIVAGLEKMPARWASLSHPRDIGCDQHTSCPVGQTCCPSLGGSWACCQLPHAVCCEDRQHCCPAGYTCNVKARSCEKEVVSAQPATFLARSPHVGVKDVECGEGHFCHDNQTCCRDNRQGWACCPYRQGVCCADRRHCCPAGFRCAARGTKCLRREAPRWDAPLRDPALRQLL [R433W] | with no effect
4 | MWTLVSWVALTAGLVAGTRCPDGQFCPVACCLDPGGASYSCCRPLLDKWPTTLSRHLGGPCQVDAHCSAGHSCIFTVSGTSSCCPFPEAVACGDGHHCCPRGFHCSADGRSCFQRSGNNSVGAIQCPDSQFECPDFSTCCVMVDGSWGCCPMPQASCCEDRVHCCPHGAFCDLVHTRCITPTGTHPLAKKLPAQRTNRAVALSSSVMCPDARSRCPDGSTCCELPSGKYGCCPMPNATCCSDHLHCCPQDTVCDLIQSKCLSKENATTDLLTKLPAHTVGDVKCDMEVSCPDGYTCCRLQSGAWGCCPFTQAVCCEDHIHCCPAGFTCDTQKGTCEQGPHQVPWMEKAPAHLSLPDPQALKRDVPCDNVSSCPSSDTCCQLTSGEWGCCPIPEAVCCSDHQHCCPQGYTCVAEGQCQRGSEIVAGLEKMPARRASLSHPRDIGCDQHTSCPVGQTCCPSLGGSWACCQLPHAVCCEDRQHCCPAGYTCNVKARSCEKEVVSAQPATFLARSPHVAVKDVECGEGHFCHDNQTCCRDNRQGWACCPYRQGVCCADRRHCCPAGFRCAARGTKCLRREAPRWDAPLRDPALRQLL [G515A] | with no effect

Variants of: B1
Details: with sgta_human SGTA

Row | Variant | effect of a mutation on the interaction
5 | MWTLVSWVALTAGLVAGTWCPDGQFCPVACCLDPGGASYSCCRPLLDKWPTTLSRHLGGPCQVDAHCSAGHSCIFTVSGTSSCCPFPEAVACGDGHHCCPRGFHCSADGRSCFQRSGNNSVGAIQCPDSQFECPDFSTCCVMVDGSWGCCPMPQASCCEDRVHCCPHGAFCDLVHTRCITPTGTHPLAKKLPAQRTNRAVALSSSVMCPDARSRCPDGSTCCELPSGKYGCCPMPNATCCSDHLHCCPQDTVCDLIQSKCLSKENATTDLLTKLPAHTVGDVKCDMEVSCPDGYTCCRLQSGAWGCCPFTQAVCCEDHIHCCPAGFTCDTQKGTCEQGPHQVPWMEKAPAHLSLPDPQALKRDVPCDNVSSCPSSDTCCQLTSGEWGCCPIPEAVCCSDHQHCCPQGYTCVAEGQCQRGSEIVAGLEKMPARRASLSHPRDIGCDQHTSCPVGQTCCPSLGGSWACCQLPHAVCCEDRQHCCPAGYTCNVKARSCEKEVVSAQPATFLARSPHVGVKDVECGEGHFCHDNQTCCRDNRQGWACCPYRQGVCCADRRHCCPAGFRCAARGTKCLRREAPRWDAPLRDPALRQLL [R19W] | with no effect

Variants of: B1
Details: with otx1_human OTX1, P32242
Chain of otx1_human OTX1, P32242 (P32242 whole entry): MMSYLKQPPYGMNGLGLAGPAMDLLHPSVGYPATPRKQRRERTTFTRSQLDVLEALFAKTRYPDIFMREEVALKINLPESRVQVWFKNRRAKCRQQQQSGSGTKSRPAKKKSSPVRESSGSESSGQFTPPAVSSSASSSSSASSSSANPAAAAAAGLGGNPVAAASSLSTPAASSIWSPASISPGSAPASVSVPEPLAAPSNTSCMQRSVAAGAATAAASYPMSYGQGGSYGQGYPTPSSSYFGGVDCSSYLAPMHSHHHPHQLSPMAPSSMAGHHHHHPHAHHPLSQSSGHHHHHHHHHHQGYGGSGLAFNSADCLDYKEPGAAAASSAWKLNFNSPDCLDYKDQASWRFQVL

Row | Variant | effect of a mutation on the interaction
6 | MWTLVSWVALTAGLVAGTWCPDGQFCPVACCLDPGGASYSCCRPLLDKWPTTLSRHLGGPCQVDAHCSAGHSCIFTVSGTSSCCPFPEAVACGDGHHCCPRGFHCSADGRSCFQRSGNNSVGAIQCPDSQFECPDFSTCCVMVDGSWGCCPMPQASCCEDRVHCCPHGAFCDLVHTRCITPTGTHPLAKKLPAQRTNRAVALSSSVMCPDARSRCPDGSTCCELPSGKYGCCPMPNATCCSDHLHCCPQDTVCDLIQSKCLSKENATTDLLTKLPAHTVGDVKCDMEVSCPDGYTCCRLQSGAWGCCPFTQAVCCEDHIHCCPAGFTCDTQKGTCEQGPHQVPWMEKAPAHLSLPDPQALKRDVPCDNVSSCPSSDTCCQLTSGEWGCCPIPEAVCCSDHQHCCPQGYTCVAEGQCQRGSEIVAGLEKMPARRASLSHPRDIGCDQHTSCPVGQTCCPSLGGSWACCQLPHAVCCEDRQHCCPAGYTCNVKARSCEKEVVSAQPATFLARSPHVGVKDVECGEGHFCHDNQTCCRDNRQGWACCPYRQGVCCADRRHCCPAGFRCAARGTKCLRREAPRWDAPLRDPALRQLL [R19W] | with no effect

Variants of: B2
Details: with lnx1_human LNX1, Q8TBB1
Chain of lnx1_human LNX1, Q8TBB1 (Q8TBB1 whole entry): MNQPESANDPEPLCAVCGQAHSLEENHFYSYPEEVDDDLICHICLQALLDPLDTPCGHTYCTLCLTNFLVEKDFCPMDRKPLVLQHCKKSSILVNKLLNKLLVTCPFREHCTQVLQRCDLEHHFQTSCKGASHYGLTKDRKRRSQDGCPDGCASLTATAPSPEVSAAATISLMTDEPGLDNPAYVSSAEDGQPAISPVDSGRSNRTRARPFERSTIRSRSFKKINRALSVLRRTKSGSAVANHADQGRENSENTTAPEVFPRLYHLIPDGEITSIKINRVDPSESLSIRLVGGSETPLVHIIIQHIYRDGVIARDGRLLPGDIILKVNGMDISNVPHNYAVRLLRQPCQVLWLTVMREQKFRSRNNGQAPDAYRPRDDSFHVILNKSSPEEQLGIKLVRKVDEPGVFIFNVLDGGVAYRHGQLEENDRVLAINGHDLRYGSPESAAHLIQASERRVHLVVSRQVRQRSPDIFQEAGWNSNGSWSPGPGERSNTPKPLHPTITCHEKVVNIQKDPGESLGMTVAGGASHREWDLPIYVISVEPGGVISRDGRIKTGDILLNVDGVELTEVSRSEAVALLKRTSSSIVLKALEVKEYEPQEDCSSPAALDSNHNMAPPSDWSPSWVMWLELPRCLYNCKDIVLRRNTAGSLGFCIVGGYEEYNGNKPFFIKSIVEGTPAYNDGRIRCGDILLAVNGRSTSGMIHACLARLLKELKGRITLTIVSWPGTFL

Row | Variant | effect of a mutation on the interaction
7 | MEFAELIKTPRVDNVVLHRPFYPAVEGTLCLTGHHLILSSRQDNTEELWLLHSNIDAIDKRFVGSLGTIIIKCKDFRIIQLDIPGMEECLNIASSIEALSTLDSITLMYPFFYRPMFEVIEDGWHCFLPEQEFELYSSATSEWRLSYVNKEFAVCPSYPPIVTVPKSIDDEALRKVATFRHGGRFPVLSYYHKKNGMVIMRSGQPLTGTNGRRCKEDEKLINATLRAGKRGYIIDTRSLNVAQQTRAKGGGFEQEAHYPQWRRIHKSIERYHILQESLIKLVEACNDQTHNMDRWLSKLEASNWLTHIKEILTTACLAAQCIDREGASILIHGTEGTDSTLQVTSLAQIILEPRSRTIRGFEALIEREWLQAGHPFQQRCAQSAYCNTKQKWEAPVFLLFLDCVWQILRQFPCSFEFNENFLIMLFEHAYASQFGTFLGNNESERCKLKLQQKTMSLWSWVNQPSELSKFTNPLFEANNLVIWPSVAPQSLPLWEGIFLRWNRSSKYLDEAYEEMVNIIEYNKELQAKVNILRRQLAELETEDGMQESP [S126C] | disrupting interaction strength

Variants of: B2
Details: with emil1_human EMILIN1, Q9Y6C2
Chain of emil1_human EMILIN1, Q9Y6C2 (Q9Y6C2 whole entry): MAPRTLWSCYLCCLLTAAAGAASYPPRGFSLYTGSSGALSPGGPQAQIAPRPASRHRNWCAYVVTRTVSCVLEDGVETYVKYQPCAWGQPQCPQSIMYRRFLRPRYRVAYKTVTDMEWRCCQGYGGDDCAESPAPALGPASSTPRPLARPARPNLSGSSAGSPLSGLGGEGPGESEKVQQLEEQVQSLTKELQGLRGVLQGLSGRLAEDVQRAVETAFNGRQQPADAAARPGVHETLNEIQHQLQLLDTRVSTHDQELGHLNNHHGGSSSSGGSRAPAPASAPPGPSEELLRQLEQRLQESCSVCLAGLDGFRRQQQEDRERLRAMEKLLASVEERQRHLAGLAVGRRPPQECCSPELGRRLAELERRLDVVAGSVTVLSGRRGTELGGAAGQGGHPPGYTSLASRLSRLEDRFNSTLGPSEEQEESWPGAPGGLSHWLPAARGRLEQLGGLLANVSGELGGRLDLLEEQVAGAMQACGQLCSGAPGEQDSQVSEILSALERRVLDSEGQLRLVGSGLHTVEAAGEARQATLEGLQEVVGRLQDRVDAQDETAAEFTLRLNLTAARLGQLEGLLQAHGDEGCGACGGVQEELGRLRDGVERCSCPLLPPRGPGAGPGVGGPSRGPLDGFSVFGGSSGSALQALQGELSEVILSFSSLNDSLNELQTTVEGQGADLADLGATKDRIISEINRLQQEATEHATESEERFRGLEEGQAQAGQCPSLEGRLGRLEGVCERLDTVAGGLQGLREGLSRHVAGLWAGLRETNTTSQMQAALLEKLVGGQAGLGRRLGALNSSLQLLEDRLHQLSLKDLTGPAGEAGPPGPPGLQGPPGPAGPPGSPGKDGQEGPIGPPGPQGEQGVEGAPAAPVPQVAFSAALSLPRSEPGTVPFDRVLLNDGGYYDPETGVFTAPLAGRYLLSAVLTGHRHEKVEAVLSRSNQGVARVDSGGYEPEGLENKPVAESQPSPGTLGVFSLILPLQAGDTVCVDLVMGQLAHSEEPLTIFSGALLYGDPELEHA

Row | Variant | effect of a mutation on the interaction
8 | MEFAELIKTPRVDNVVLHRPFYPAVEGTLCLTGHHLILSSRQDNTEELWLLHSNIDAIDKRFVGSLGTIIIKCKDFRIIQLDIPGMEECLNIASSIEALSTLDSITLMYPFFYRPMFEVIEDGWHCFLPEQEFELYSSATSEWRLSYVNKEFAVCPSYPPIVTVPKSIDDEALRKVATFRHGGRFPVLSYYHKKNGMVIMRSGQPLTGTNGRRCKEDEKLINATLRAGKRGYIIDTRSLNVAQQTRAKGGGFEQEAHYPQWRRIHKSIERYHILQESLIKLVEACNDQTHNMDRWLSKLEASNWLTHIKEILTTACLAAQCIDREGASILIHGTEGTDSTLQVTSLAQIILEPRSRTIRGFEALIEREWLQAGHPFQQRCAQSAYCNTKQKWEAPVFLLFLDCVWQILRQFPCSFEFNENFLIMLFEHAYASQFGTFLGNNESERCKLKLQQKTMSLWSWVNQPSELSKFTNPLFEANNLVIWPSVAPQSLPLWEGIFLRWNRSSKYLDEAYEEMVNIIEYNKELQAKVNILRRQLAELETEDGMQESP [S126C] | with no effect
